Measurements taken from patent US20100322948A1, “Bone morphogenetic protein (BMP)-binding domains of proteins of the repulsive guidance molecule (RGM) protein family and functional fragments thereof, and use of same” (ABBOTT GMBH & CO. KG, priority 2007, published 2010).

Experiments:
[1] = target: T1, BMP-4 (Homo sapiens, UniProt P12644); assay: In vitro interaction test, variant A: immobilized BMP-4, detection of binding of RGMA-Fc fusion proteins; details: Working Example 3, FIG. 5
T1 construct: purchased R&D Systems 314-BM
T1 sequence (P12644 293-408): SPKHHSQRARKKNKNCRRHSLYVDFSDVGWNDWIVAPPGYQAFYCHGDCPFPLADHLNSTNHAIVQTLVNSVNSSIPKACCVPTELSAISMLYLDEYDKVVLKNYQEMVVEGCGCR
Protocol: (§1) Test Method 4: In Vitro Interaction Test for Determining the Interaction between RGMA and BMP-2 and -4
(§2) The interaction tests were carried out as described below:
Variant A: Immobilization of the BMP-2/ or -4 Protein and Detection of the Binding of Various RGMA-Fc Fusion Proteins
1. Plate: • Immunoplate Cert. MaxiSorp F96 (Nunc, 439454)
Recombinant human BMP-2, Catalog No.: 355-BM, Company: R&D Systems; Recombinant human RGM A, R&D Systems; Prod. #2495-RM, or
Recombinant human BMP-4, Catalog No.: 314-BM, Company: R&D Systems; • Concentration: 10 μg/mL • Volume used: 2.5 μg/mL in Na2CO3; addition: 50 μL per well • 1 hour at 37° C. in damp chamber
3. Washing step: • Wash 3× with PBS/[…] Tween 20
4. Blocking: • 3% BSA in PBS/0.02% Tween, 1 hour at 37° C. in damp chamber; addition: 200 μL per well
RGMA-Fc fragments, • 1 μg/mL initial concentration, then dilution down to 1:2 using PBS/0.02% Tween20 • […] • 1 hour at 37° C. in damp chamber
(§3) 6. Washing step: • Wash 3× with PBS/0.02% Tween 20
Biotin anti-human Fc (R&D-Systems), Catalog No.: 709065; 1 mg/mL; • 1:200 in 0.6% BAS/PBS-T (0.02% Tween) • Addition: 50 μL per well • 1 hour at 37° C. in damp chamber
8. Secondary antibody: Strep. POD (Roche); Catalog No.: 11089153001 • 500 U; 1:5000 in 0.6% BAS/PBS-T (0.02% Tween) • Addition: 50 μL per well • 1 hour at 37° C. in damp chamber
9. Washing step: • Wash 3× with PBS/0.02% Tween 20
ImmunoPure TMB substrate kit; Pierce, #34021 • Development period: approximately 1-30 minutes • 1:1 mixture of […]; addition: 50 μL per well
11. Stop: • 2.5 M H2SO4; addition: 50 μL per well
The test was conducted according to test method 4, variant A above, with immobilization of BMP-4 (1 mg/mL). The binding of the fusion proteins was detected using anti-human-Fc or anti-Myc anti-rabbit (Invitrogen) antibodies.
The test was conducted according to test method 4, variant A above, with immobilization of BMP-4 (1 mg/mL). The binding of the fusion proteins was detected using anti-human-antibodies.

[2] = target: T1, BMP-4; assay: In vitro interaction test, variant B: immobilized RGMA-Fc fusion proteins, detection of BMP-4 binding
Protocol: as §1, §2
(§4) Variant B: Immobilization of Various RGMA-Fc Fusion Proteins and Detection of the Binding of the BMP-2/ or -4 Protein
(§5) Immunoplate Cert. MaxiSorp F96 (Nunc, 439454)
(§6) RGMA-Fc fragments • Volume used: 2.5 μg/mL in Na2CO3; addition: 50 μL per well • 1 hour at 37° C. in damp chamber
(§7) 3. Washing step: • Wash 3× with PBS/0.02% Tween 20
(§8) 4. Blocking: • 3% BSA in PBS/0.02% Tween, 1 hour at 37° C. in damp chamber • Addition : 200 μL per well, incubation: 1 hour at 37° C. in damp chamber
(§9) Recombinant human BMP-2, Catalog No.: 355-BM, Company: R&D Systems; or
(§10) Recombinant human RGM A, R&D Systems; Prod. #2495-RM,
(§11) recombinant human BMP-4, Catalog No.: 314-BM, Company: R&D Systems;
(§12) Concentration in each case: 10 μg/mL
(§13) Dilution steps: in each case 1:2 with PBS/0.02% Tween 20
as §3
(§14) Anti-human BMP-4 biotin antibody; Catalog No.: BAM7572, 1:200 in 1% BSA-PBS-T
(§15) 8. Washing step: • Wash 3× with PBS/0.02% Tween 20
10. Washing step: • Wash 3× with PBS/0.02% Tween 20
ImmunoPure TMB substrate kit; (Pierce, #34021) • Development period: approximately 1-30 minutes • 1:1 mixture of […]; addition: 50 μL per well
12. Stop: • 2.5 M H2SO4; addition: 50 μL per well
The test was conducted according to test method 4, variant B above, with immobilization of the fusion proteins (1 mg/mL). The binding of BMP-4 was detected using anti-BMP-4 biotin antibodies.
(§16) The test was conducted according to test method 4, variant B above, with immobilization of the fusion proteins (1 mg/mL). The binding of BMP-4 and -2 was detected using anti-BMP-4 and anti-BMP-2 biotin antibodies, respectively.

[3] = target: T2, BMP-2 (Homo sapiens, UniProt P12643); assay: In vitro interaction test, variant B: immobilized RGMA-Fc fusion proteins, detection of BMP-2 binding; details: Working Example 2, FIG. 4, anti-BMP-2 biotin antibodies
T2 construct: purchased R&D Systems 355-BM; host or cells: CHO cells (said of #355-BM in the BRE-Luc section)
T2 sequence (P12643 283-396): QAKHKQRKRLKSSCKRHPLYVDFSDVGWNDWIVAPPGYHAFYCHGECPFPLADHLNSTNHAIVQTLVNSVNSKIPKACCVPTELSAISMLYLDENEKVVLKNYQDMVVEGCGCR
Protocol: as §1, §2, §4, §5, §6, §7, §8, §9, §10, §11, §12, §13, §3, §14, §15
10. Washing step: • Wash 3× with PBS/0.02% Tween 20 […]
as §16

B1: fragment #786: Fc fusion protein of human RGM A amino acids 47-168 (protein)
chain: PCKILKCNSEFWSATSGSHAPASDDTPEFCAALRSYALCTRRTARTCRGDLAYHSAVHGIEDLMSQHNCSKDGPTSQPRLRTLPPAGDSQERSDSPEICHYEKSFHKHSATPNYTHCGLFGD
modifications: left off: small tags and cut ends; a dimerising Fc or GST
binding to immobilized BMP-4, comparison among fragments [1]: most strongly | binding to immobilized BMP-4 ([1]; detection anti-human-Fc or anti-Myc): Significant concentration-dependent binding | binding of BMP-4 ([2]; Working Example 1, FIG. 3, anti-BMP-4 biotin antibodies): more significant binding | binding of BMP-4 ([2]; Working Example 2, FIG. 4, anti-BMP-4 biotin antibodies): more significant binding | binding of BMP-2 [3]: more significant binding
